Test results from patent US20040176301A1 (CYCLACEL, published 2004).
Where two headings read alike, the source gives them in different places. One block for each binder: values may come before it. Numbered stars: 1 amine (or outer) side, 2 acyl side, 3 side chain; on linkers, the order of the positions; unused ones are H or OH. Square brackets hold non-standard residues; d marks the D form. Dhp = dehydrophenylalanine, Z isomer, O=C(/C(=C/c1ccccc1)N[*:1])[*:2]; Phe(4-F) = N[C@@H](Cc1ccc(F)cc1)C(=O)O; 1Nal = N[C@@H](Cc1cccc2ccccc12)C(=O)O; Phe(ol) = N[C@H](CO)Cc1ccccc1; dPsa = D-O-acetylphenylserine; Psa = O-acetylphenylserine; Nle = CCCC[C@H](N)C(=O)O; Nva = CCC[C@H](N)C(=O)O; Abu = CC[C@H](N)C(=O)O; dPse = D-phenylserine

Legend:
Assay in all cases: cell-based or functional assay
CDK2/cyclin A [1] = target: T1, CDK2/cyclin A (UniProt P24941 1-298; P20248 1-432)
CDK2/cyclin A [2] = target: T1, CDK2/cyclin A; remark: listed apart in the source
CDK2/cyclin A [3] = target: T1, CDK2/cyclin A; remark: listed apart in the source
CDK2/cyclin A [4] = target: T1, CDK2/cyclin A; remark: listed apart in the source
CDK2/cyclin A [5] = target: T1, CDK2/cyclin A; remark: listed apart in the source

- Relative activity, Kinase Inhibition (CDK2/cyclin A kinase assay, pRb substrate, [ATP] = 100 µM) (CDK2/cyclin A [1]): 0.1 relative to H-His-Ala-Lys-Arg-Arg-Leu-Ile-Phe-NH2 (=1)
B1: H-His-Gly-Lys-Arg-Arg-Leu-Ile-Phe-NH2 (peptide)
peptide: H-HGKRRLIF-NH2

- Relative activity, Kinase Inhibition (CDK2/cyclin A kinase assay, pRb substrate, [ATP] = 100 µM) (CDK2/cyclin A [1]): 5 relative to H-His-Ala-Lys-Arg-Arg-Leu-Ile-Phe-NH2 (=1)
B2: H-His-Abu-Lys-Arg-Arg-Leu-Ile-Phe-NH2 (peptide)
peptide: H-H[Abu]KRRLIF-NH2
SMILES: CC[C@H](NC(=O)[C@@H](N)Cc1c[nH]cn1)C(=O)N[C@@H](CCCCN)C(=O)N[C@@H](CCCNC(=N)N)C(=O)N[C@@H](CCCNC(=N)N)C(=O)N[C@@H](CC(C)C)C(=O)N[C@H](C(=O)N[C@@H](Cc1ccccc1)C(N)=O)[C@@H](C)CC

- Relative activity, Kinase Inhibition (CDK2/cyclin A kinase assay, pRb substrate, [ATP] = 100 µM) (CDK2/cyclin A [2]): 60 relative to H-His-Ala-Lys-Arg-Arg-Leu-Ile-Phe-NH2 (=1)
B3: H-Ala-Ala-Abu-Arg-Arg-Leu-Ile-pFPhe-NH2 (peptide)
peptide: H-AA[Abu]RRLI[Phe(4-F)]-NH2
SMILES: CC[C@H](NC(=O)[C@H](C)NC(=O)[C@H](C)N)C(=O)N[C@@H](CCCNC(=N)N)C(=O)N[C@@H](CCCNC(=N)N)C(=O)N[C@@H](CC(C)C)C(=O)N[C@H](C(=O)N[C@@H](Cc1ccc(F)cc1)C(N)=O)[C@@H](C)CC

- Relative activity, Kinase Inhibition (CDK2/cyclin A kinase assay, pRb substrate, [ATP] = 100 µM) (CDK2/cyclin A [3]): < 0.1 relative to H-His-Ala-Lys-Arg-Arg-Leu-Ile-Phe-NH2 (=1)
B4: H-His-Ala-Lys-Arg-Arg-Leu-Ile-D-Psa-OH (peptide)
peptide: H-HAKRRLI[dPsa]-OH

- Relative activity, Kinase Inhibition (CDK2/cyclin A kinase assay, pRb substrate, [ATP] = 100 µM) (CDK2/cyclin A [3]): 3.3 relative to H-His-Ala-Lys-Arg-Arg-Leu-Ile-Phe-NH2 (=1)
B5: H-His-Ala-Lys-Arg-Arg-Leu-Ile-Dhp-OH (peptide)
peptide: H-HAKRRLI[Dhp]-OH
SMILES: CC[C@H](C)[C@H](NC(=O)[C@H](CC(C)C)NC(=O)[C@H](CCCNC(=N)N)NC(=O)[C@H](CCCNC(=N)N)NC(=O)[C@H](CCCCN)NC(=O)[C@H](C)NC(=O)[C@@H](N)Cc1c[nH]cn1)C(=O)N/C(=C\c1ccccc1)C(=O)O

- Relative activity, Kinase Inhibition (CDK2/cyclin A kinase assay, pRb substrate, [ATP] = 100 µM) (CDK2/cyclin A [4]): 1.5 relative to H-His-Ala-Lys-Arg-Arg-Leu-Ile-Phe-NH2 (=1)
B6: H-His-Ala-Lys-Arg-Arg-Ile-Ile-Phe-NH2 (peptide)
peptide: H-HAKRRIIF-NH2

- Relative activity, Kinase Inhibition (CDK2/cyclin A kinase assay, pRb substrate, [ATP] = 100 µM) (CDK2/cyclin A [5]): 0.4 relative to H-His-Ala-Lys-Arg-Arg-Leu-Ile-Phe-NH2 (=1)
B7: H-His-Ala-Lys-Arg-Arg-Leu-Phe-Phe-NH2 (peptide)
peptide: H-HAKRRLFF-NH2

- Relative activity, Kinase Inhibition (CDK2/cyclin A kinase assay, pRb substrate, [ATP] = 100 µM) (CDK2/cyclin A [3]): 0.6 relative to H-His-Ala-Lys-Arg-Arg-Leu-Ile-Phe-NH2 (=1)
B8: H-His-Ala-Lys-Arg-Arg-Leu-Ile-Pheol (peptide)
peptide: H-HAKRRLI[Phe(ol)]

- Relative activity, Kinase Inhibition (CDK2/cyclin A kinase assay, pRb substrate, [ATP] = 100 µM) (CDK2/cyclin A [3]): < 0.1 relative to H-His-Ala-Lys-Arg-Arg-Leu-Ile-Phe-NH2 (=1)
B9: H-His-Ala-Lys-Arg-Arg-Leu-Ile-D-Pse-OH (peptide)
peptide: H-HAKRRLI[dPse]-OH

- Relative activity, Kinase Inhibition (CDK2/cyclin A kinase assay, pRb substrate, [ATP] = 100 µM) (CDK2/cyclin A [3]): < 0.1 relative to H-His-Ala-Lys-Arg-Arg-Leu-Ile-Phe-NH2 (=1)
B10: H-His-Ser-Lys-Arg-Arg-Leu-Ile-L-Psa-OH (peptide)
peptide: H-HSKRRLI[Psa]-OH

- Relative activity, Kinase Inhibition (CDK2/cyclin A kinase assay, pRb substrate, [ATP] = 100 µM) (CDK2/cyclin A [1]): < 0.1 relative to H-His-Ala-Lys-Arg-Arg-Leu-Ile-Phe-NH2 (=1)
B11: H-His-Nva-Lys-Arg-Arg-Leu-Ile-Phe-NH2 (peptide)
peptide: H-H[Nva]KRRLIF-NH2
SMILES: CCC[C@H](NC(=O)[C@@H](N)Cc1c[nH]cn1)C(=O)N[C@@H](CCCCN)C(=O)N[C@@H](CCCNC(=N)N)C(=O)N[C@@H](CCCNC(=N)N)C(=O)N[C@@H](CC(C)C)C(=O)N[C@H](C(=O)N[C@@H](Cc1ccccc1)C(N)=O)[C@@H](C)CC

- Relative activity, Kinase Inhibition (CDK2/cyclin A kinase assay, pRb substrate, [ATP] = 100 µM) (CDK2/cyclin A [5]): < 0.1 relative to H-His-Ala-Lys-Arg-Arg-Leu-Ile-Phe-NH2 (=1)
B12: H-His-Ala-Lys-Arg-Arg-Leu-Phe-NH2 (peptide)
peptide: H-HAKRRLF-NH2

- Relative activity, Kinase Inhibition (CDK2/cyclin A kinase assay, pRb substrate, [ATP] = 100 µM) (CDK2/cyclin A [4]): < 0.1 relative to H-His-Ala-Lys-Arg-Arg-Leu-Ile-Phe-NH2 (=1)
B13: H-His-Ala-Lys-Arg-Arg-Val-Ile-Phe-NH2 (peptide)
peptide: H-HAKRRVIF-NH2

- Relative activity, Kinase Inhibition (CDK2/cyclin A kinase assay, pRb substrate, [ATP] = 100 µM) (CDK2/cyclin A [4]): < 0.1 relative to H-His-Ala-Lys-Arg-Arg-Leu-Ile-Phe-NH2 (=1)
B14: H-His-Ala-Lys-Arg-Arg-Nle-Ile-Phe-NH2 (peptide)
peptide: H-HAKRR[Nle]IF-NH2
SMILES: CCCC[C@H](NC(=O)[C@H](CCCNC(=N)N)NC(=O)[C@H](CCCNC(=N)N)NC(=O)[C@H](CCCCN)NC(=O)[C@H](C)NC(=O)[C@@H](N)Cc1c[nH]cn1)C(=O)N[C@H](C(=O)N[C@@H](Cc1ccccc1)C(N)=O)[C@@H](C)CC

- Relative activity, Kinase Inhibition (CDK2/cyclin A kinase assay, pRb substrate, [ATP] = 100 µM) (CDK2/cyclin A [4]): < 0.1 relative to H-His-Ala-Lys-Arg-Arg-Leu-Ile-Phe-NH2 (=1)
B15: H-His-Ala-Lys-Arg-Arg-1Nap-Ile-Phe-NH2 (peptide)
peptide: H-HAKRR[1Nal]IF-NH2
SMILES: CC[C@H](C)[C@H](NC(=O)[C@H](Cc1cccc2ccccc12)NC(=O)[C@H](CCCNC(=N)N)NC(=O)[C@H](CCCNC(=N)N)NC(=O)[C@H](CCCCN)NC(=O)[C@H](C)NC(=O)[C@@H](N)Cc1c[nH]cn1)C(=O)N[C@@H](Cc1ccccc1)C(N)=O

- Relative activity, Kinase Inhibition (CDK2/cyclin A kinase assay, pRb substrate, [ATP] = 100 µM) (CDK2/cyclin A [1]): 2 relative to H-His-Ala-Lys-Arg-Arg-Leu-Ile-Phe-NH2 (=1)
B16: H-His-Val-Lys-Arg-Arg-Leu-Ile-Phe-NH2 (peptide)
peptide: H-HVKRRLIF-NH2

- Relative activity, Kinase Inhibition (CDK2/cyclin A kinase assay, pRb substrate, [ATP] = 100 µM) (CDK2/cyclin A [4]): < 0.1 relative to H-His-Ala-Lys-Arg-Arg-Leu-Ile-Phe-NH2 (=1)
B17: H-His-Ala-Lys-Arg-Arg-Phe-Ile-Phe-NH2 (peptide)
peptide: H-HAKRRFIF-NH2
